Measured values published in article PMC7617805, “Mechanism of DNA capture by the MukBEF SMC complex and its inhibition by a viral DNA mimic” (Cell, 2025).

What was measured:
[1] = biological target: the molecule itself; test: cryo-EM structure; wild-type P. thracensis MukBEF dimers 150 nM with nicked plasmid pFB526, 5 mM ATP, 10 mM MgCl2, optionally Na3VO4 or BeSO4/NaF; datasets pooled; open-gate and DNA capture states
[2] = biological target: the molecule itself; test: cryo-EM structure; E. coli MukEF 1 uM with 4 uM gp5.9 in 20 mM Tris, 200 mM NaCl, 0.5 mM TCEP, 0.05 % β-octyl glucoside, pH 7.4; focused refinement on gp5.9/MukE

Protein | binding result [1] | stoichiometry N [2]
P. thracensis MukB, wild type, as subunit of the MukBEF complex used for cryo-EM (natural protein, Photorhabdus thracensis, UniProt A0A0F7LRY2 1-1482, looked up, MukB of Photorhabdus thracensis; the MukB chain of m14; also called κ-MukB; ν-MukB; source: E. coli BL21-Gold(DE3), polycistronic pFB403, purified as the MukBEF complex; not shown: His6-SUMO, N-terminal, cleaved) MIERGKFRSLTLVNWNGFFARTFDLDELVTTLSGGNGAGKSTTMAAFVTALIPDLTLLHFRNTTEAGATSGSRDKGLHGKLRAGVCYSTLDVINSRHQRVVVGVRLQQVAGRDRKVDIKPFMIQGLPTAIQPTQLLTENVGERQARVLPLNELKDRLDEMEGVQFKQFNSITDYHAQMFDLGVIPKRLRSASDRSKFYRLIEASLYGGISSAITRSLRDYLLPENSGVRKAFQDMEAALRENRITLEAIRVTQSDRDLFKHLITEATSYVSADYMRHANERRTHLDEALALRGELFGSHKQLATEQYRHVEMARELAEQSGASSDLETDHQAASDHLNLVQTAMRQQEKIDRYQVDLEELSYRLEEQTDVVEEAGELQAEYEARTEATEQEVDELKSQLADYQQALDVQQTRAIQYQQALQALERARELCRLPDLSVDNAEEWLETFQAKEQQATEALLALEQKLSVADAAHNQFEQAYQLVKNIVGETSRSEAWQSARELLRDWPSQRHLADRVQPLRMRLSELEQRLNNQQNAERLLSEFCKRQGRQYQAEDLEALQNELEARQEALSLSVNEGGERRMEMRQELEQLKQKIQSLTARAPVWLAAQDTLNQLCEQSGETLASSNDVTEYMQQLLEREREATVERDEVAAQKRELEKQIERLSQPSGAEDSRMIALAERFGGVLLSEIYDDITIDDAPYFSALYGPARHGIVVPDLSLVRPHLETLEDCPEDLYLIEGDPQSFDDSVFNAEEQTNAVLVKSSDRQWRYSRYPELPLFGRAARENRLEALNLERDALAERYATLSFDVQKIQRAHQAFSQFVGKHLSVAFDTDPEAEIRELRQRHTELEREVSRFEDQTQQQRQQYAQAKESLTTLNRLIPQVTLLLDETLIDRVEEVREEMDEAQEAARFLQQHGSALTKLEPMVAVLQSDPQQHEQLQQDYETAKHSQHQAKQQAFALVEIVQRRVHFSYSDSAGMLSENADLNDKLRQRLEHAESDRSRAREQLRQQQAQYSQFNQVLASLKSSYETKQDMLKELLQEMKDIGVQADANAEMRARERRDRLHEALSVNRSRVNQLEKQIAFCEAEMENVQKKLRKLERDYYQIREQVVSAKAGWCAVMRMVKDNGVERRLHRRELAYMEGGALRSMSDKALGALRLAVADNEHLRDALRLSEDPKRPERKVQFFIAVYQHLRERIRQDIIRTDDPVDAIEQMEIELARLTEELTAREQKLAISSKSVANIIRKTIQREQNRIRMLNQGLQAVSFGQVRGVRLNVNVRESHAILLDVLSEQQEQHQDLFNSQRLTFSEAMAKLYQRLNPQVDMGQRLPQTIGEELLDYRNYLELDVEVNRGSDGWLKAESGALSTGEAIGTGMSILVMVVQSWEEESRRLRGKDISPCRLLFLDEAARLDAKSIATLFELCERLQMQLIIAAPENISPEKGTTYKLVRKVFKNHEHVHVVGLRGFGQDAPATQLISDVTA | binds | 
T7 gp5.9 (untagged after cleavage, from insect cells) (natural protein, bacteriophage T7, gp5.9 of bacteriophage T7; Used as 'gp5.9 dimers' in SEC; source: Hi5 insect cells, purified (Talon, 3C cleavage, HisTrap flowthrough, MonoQ)) MSRDLVTIPRDVWNDIQGYIDSLERENDSLKNQLMEADEYVAELEEKLNGTS |  | 2
